What was measured:
[1] = target: T1, mCSF1R ECD-Fc (mouse); assay: ELISA, plate coated with mCSF1R ECD-Fc, detection anti-human kappa-HRP, A450
T1 construct: also called mouse CSF1R ECD
Description: (§1) Ninety-six well clear-bottom ELISA plates were coated overnight with 1 μg/ml recombinant hCSF1R ECD.506-Fc (SEQ ID NO: 6; FivePrime Therapeutics) or Human M-CSF R Fc Chimera (R&D Systems) in PBS. The next morning, wells were washed four times with 0.05% Tween20 in PBS (PBST) and blocked with Blocker-Blotto (Pierce). Fifty μl of 0.5× serial dilutions of the humanized antibody or parental chimeric antibody, beginning with 2000 ng/ml, diluted 1:1 in Blocker-Blotto were added to the CSF1R-coated wells. After incubation at room temperature (RT) for 90 min, wells were washed four times with PBST, and a 1:5000 dilution of a peroxidase-conjugated Goat anti-Human kappa Light chain antibody (Sigma) in Blocker-Blotto was added to each well. After incubation at RT for 60 min, wells were washed four times with PBST, and 50 μl o-phenylenediamine dihydrochloride peroxidase substrate (Sigma) was added to each well. After incubation at RT for 30 min, A450 values of each well were read directly on a SpectraMaxPlus spectrophotometer with SoftMaxPro software (Molecular Devices).
(§2) The binding curve for each humanized antibody binding to mouse CSF1R ECD was determined as described above for human CSF1R, except the wells of the clear-bottom ELISA plates were coated overnight with 2 μg/ml recombinant mCSF1R ECD-Fc (FivePrime Therapeutics, SEQ ID NO: 93).

[2] = target: T2, hCSF1R ECD.506 (human, UniProt P07333 20-506); assay: SPR Biacore T100, antibody captured on anti-human IgG, hCSF1R ECD.506 as analyte, 1:1 model
T2 construct: also called human CSF1R ECD
Description: The kₐ, kd, and KD for binding to human CSF1R ECD was determined for each of the humanized antibodies as follows.
Binding kinetics of anti-CSF1R humanized antibodies to CSF1R ECD was determined using Biacore T100 Surface Plasmon Resonance (SPR) (GE Healthcare Life Sciences, Piscataway, N.Y.). Each of the humanized anti-CSF1R antibodies was captured on a CM5 sensor chip immobilized with anti-Human IgG antibody using the Human antibody capture kit (GE Healthcare Life Sciences, Piscataway, N.Y.) at 150 RU so that the Rmax value for hCSF1R ECD.506 (SEQ ID NO: 5) binding was 100 RU. Rmax values of less than 150 RU are recommended for accurately determining kinetic values. […] The association constant, dissociation constant, affinity, and binding capacity of each of the Fabs for human CSF1R ECD was calculated using the Biacore T100 Evaluation software package using the 1:1 binding model.

[3] = target: T3, cynoCSF1R ECD-Fc (cynomolgus); assay: competition ELISA, blocking of human CSF1 binding to cynoCSF1R ECD-Fc
T3 construct: also called cynomolgus CSF1R ECD
Description: The humanized antibodies, along with the parental chimeric antibodies (cAbs), were tested for their ability to block human CSF1 binding to human and cynomolgus CSF1R ECD, as follows.
Recombinant Human CSF1 (M-CSF; R&D Systems) was biotinylated using an NH₂-Biotin Labeling Kit (Dojindo Molecular Technologies). One hundred μl of 1 μg/ml biotinylated CSF1 in PBST/0.1% BSA was added to the wells of Reacti-Bind Streptavidin coated plates (Pierce) pre-blocked with SuperBlock blocking buffer (Pierce) according to the manufacturer's instructions. Fifty μl of 0.5× serial dilutions of the humanized antibody or parental chimeric antibody, beginning with 2000 ng/ml, was incubated with 50 ng/ml hCSF1R ECD.506-Fc (SEQ ID NO: 6; FivePrime Therapeutics) or 50 ng/ml cynoCSF1R ECD-Fc (FivePrime Therapeutics, SEQ ID NO: 8, but without the 19 amino acid leader sequence) in 100 μl PBST/0.1% BSA for 90 min at RT, after which the admix was transferred to one or more wells of a ligand-coated plate. After 90 min at RT, wells were washed with PBST, and a 1:5000 dilution of an Fc-fragment-specific peroxidase-conjugated goat anti-human IgG (Jackson Immuno Research) in PBST/0.1% BSA was added to each well. After incubation at RT for 60 min, wells were washed with PBST/0.1% BSA, and o-phenylenediamine dihydrochloride peroxidase substrate (Sigma) was added to each well. After incubation at RT for 30 min, A450 values of each well were read directly on a SpectraMaxPlus spectrophotometer with SoftMaxPro software (Molecular Devices).

[4] = target: T3, cynoCSF1R ECD-Fc; assay: competition ELISA, blocking of human IL34 binding to cynoCSF1R ECD-Fc
[5] = target: T3, cynoCSF1R ECD-Fc; assay: ELISA, plate coated with cynoCSF1R ECD-Fc
Description: as §1
as §2, with “cynomolgus” for “mouse”, “cynoCSF1R” for “mCSF1R”, “8, but without the 19 amino acid leader sequence).” for “93).”

[6] = target: T4, hCSF1R ECD.506-Fc (human); assay: ELISA, plate coated with human CSF1R ECD-Fc
T4 construct: also called human CSF1R ECD-Fc fusion protein; human CSF1R ECD
Description: as §1

[7] = target: human CSF1R on CSF1R (SEQ ID NO: 2)-transfected CHO cells (human, UniProt P07333 20-972); assay: cell-based or functional assay

Binder	binding result [1]	Kd [2] [nM]	koff [2] [s⁻¹]	kon [2] [M⁻¹ s⁻¹]	IC50 [3] [µg/mL]	IC50 [4] [µg/mL]	EC50 [5] [µg/mL]	EC50 [6] [µg/mL]	IC50, inhibition of CSF1-induced CSF1R phosphorylation (head prints 'Human CSF1/Human CSF1R ECD IC50') [7] [µg/mL]	IC50, inhibition of IL34-induced CSF1R phosphorylation (head prints 'Human IL34/Human CSF1R ECD IC50') [7] [µg/mL]
h0302-L1H1 (antibody, human IgG4 S228P, kappa, V domains shown, also called Ab8; huAb 0302-L1H1) VH: QVQLVQSGAEVKKPGSSVKVSCKASGYTFSDFNIHWVRQAPGQGLEWMGYINPYTDVTVYNEKFKGRVTITSDKSTSTAYMELSSLRSEDTAVYYCASYFDGTFDYALDYWGQGTLVTVSS VL: EIVLTQSPATLSLSPGERATLSCRASESVDNYGLSFMNWYQQKPGQAPRLLIYTASNLESGIPARFSGSGSRTDFTLTISSLEPEDFAVYYCQQSKELPWTFGQGTKVEIKR	no binding (tested: 2000 ng/ml)	1.17	0.00404	3.47e+06	0.0605	0.676	1.06	0.0214	0.742	0.364
h0311-L1H1 (antibody, human IgG4 S228P, kappa, V domains shown, also called Ab14; huAb 0311-L1H1) VH: QVQLVQSGAEVKKPGSSVKVSCKASGYIFTDYNMHWVRQAPGQGLEWMGEINPNNGVVVYNQKFKGRVTITVDKSTSTAYMELSSLRSEDTAVYYCTRALYHSNFGWYFDSWGQGTLVTVSS VL: DIVLTQSPATLSLSPGERATLSCKASQSVDYDGDSHMNWYQQKPGQAPRLLIYTASNLESGIPARFSGSGSGADFTLTISSLEPEDFAVYYCQQGNEDPWTFGQGTKVEIKR	no binding (tested: 2000 ng/ml)	0.5	0.000664	1.32e+06	0.0247	0.0537	0.0309	0.0143	0.508	0.667
h0302-L0H2 (antibody, human IgG4 S228P, kappa, V domains shown, also called Ab10; huAb 0302-L0H2) VH: QVQLVQSGAEVKKPGSSVKVSCKASGYTFSDFNIHWVRQAPGQGLEWIGYINPYTDVTVYNEKFKGRATLTSDKSTSTAYMELSSLRSEDTAVYYCASYFDGTFDYALDYWGQGTLVTVSS VL: EIVLTQSPATLSLSPGERATLSCRASESVDNYGLSFMNWYQQKPGQAPRLLIYTASNLESGIPARFSGSGSGTDFTLTISSLEPEDFAVYYCQQSKELPWTFGQGTKVEIKR	no binding (tested: 2000 ng/ml)	0.53	0.00179	3.4e+06	–	0.248	0.155	0.0179	0.438	0.474
h0301-L0H1 (antibody, human IgG4 S228P, kappa, also called Ab2; huAb 0301-L0H1) heavy: not shown light: EIVLTQSPATLSLSPGERATLSCKASQSVDYDGDNYMNWYQQKPGQAPRLLIYAASNLESGIPARFSGSGSGTDFTLTISSLEPEDFAVYYCHLSNEDLSTFGGGTKVEIKRTVAAPSVFIFPPSDEQLKSGTASVVCLLNNFYPREAKVQWKVDNALQSGNSQESVTEQDSKDSTYSLSSTLTLSKADYEKHKVYACEVTHQGLSSPVTKSFNRGEC	no binding (tested: 2000 ng/ml)	0.34	0.00122	3.56e+06	0.0274	0.0364	0.0144	0.0142	0.778	0.453

Further lines, results first:

binding result [1]	Kd [2] [nM]	koff [2] [s⁻¹]	kon [2] [M⁻¹ s⁻¹]	IC50 [3] [µg/mL]	IC50 [4] [µg/mL]	EC50 [5] [µg/mL]	EC50 [6] [µg/mL]	IC50, inhibition of CSF1-induced CSF1R phosphorylation (head prints 'Human CSF1/Human CSF1R ECD IC50') [7] [µg/mL]	IC50, inhibition of IL34-induced CSF1R phosphorylation (head prints 'Human IL34/Human CSF1R ECD IC50') [7] [µg/mL]	Binder
no binding (tested: 2000 ng/ml)	0.35	0.000473	1.34e+06	0.026	0.0408	0.0175	0.0115	0.435	0.633	h0311-L0H2 (antibody, human IgG4 S228P, kappa, V domains shown, also called Ab15; huAb 0311-L0H2) VH: QVQLVQSGAEVKKPGSSVKVSCKASGYIFTDYNMHWVRQAPGQGLEWMGEINPNNGVVVYNQKFKGTTTLTVDKSTSTAYMELSSLRSEDTAVYYCTRALYHSNFGWYFDSWGQGTLVTVSS VL: EIVLTQSPATLSLSPGERATLSCKASQSVDYDGDSHMNWYQQKPGQAPRLLIYTASNLESGIPARFSGSGSGTDFTLTISSLEPEDFAVYYCQQGNEDPWTFGQGTKVEIKR
no binding (tested: 2000 ng/ml)	0.28	0.00066	2.32e+06	0.028	0.0374	0.0138	0.0148	1.32	0.481	h0301-L0H2 (antibody, human IgG4 S228P, kappa, also called Ab3; huAb 0301-L0H2) heavy: not shown light: EIVLTQSPATLSLSPGERATLSCKASQSVDYDGDNYMNWYQQKPGQAPRLLIYAASNLESGIPARFSGSGSGTDFTLTISSLEPEDFAVYYCHLSNEDLSTFGGGTKVEIKRTVAAPSVFIFPPSDEQLKSGTASVVCLLNNFYPREAKVQWKVDNALQSGNSQESVTEQDSKDSTYSLSSTLTLSKADYEKHKVYACEVTHQGLSSPVTKSFNRGEC
no binding (tested: 2000 ng/ml)	0.25	0.000742	2.95e+06	0.0278	0.0365	0.0166	0.0162	0.682	0.397	h0301-L1H2 (antibody, human IgG4 S228P, kappa, also called Ab6; huAb 0301-L1H2) heavy: not shown light: NIVLTQSPATLSLSPGERATLSCKASQSVDYDGDNYMNWYQQKPGQAPRLLIYAASNLESGIPARFSGSGSGTDFTLTISSLEPEDFAVYYCHLSNEDLSTFGGGTKVEIKRTVAAPSVFIFPPSDEQLKSGTASVVCLLNNFYPREAKVQWKVDNALQSGNSQESVTEQDSKDSTYSLSSTLTLSKADYEKHKVYACEVTHQGLSSPVTKSFNRGEC
no binding (tested: 2000 ng/ml)	0.32	0.000921	2.87e+06	0.0311	0.0424	0.0167	0.0165	0.814	0.384	h0301-L1H1 (antibody, human IgG4 S228P, kappa, also called Ab5; huAb 0301-L1H1) heavy: not shown light: NIVLTQSPATLSLSPGERATLSCKASQSVDYDGDNYMNWYQQKPGQAPRLLIYAASNLESGIPARFSGSGSGTDFTLTISSLEPEDFAVYYCHLSNEDLSTFGGGTKVEIKRTVAAPSVFIFPPSDEQLKSGTASVVCLLNNFYPREAKVQWKVDNALQSGNSQESVTEQDSKDSTYSLSSTLTLSKADYEKHKVYACEVTHQGLSSPVTKSFNRGEC

From patent US20220153851A1 (Five Prime, published 2022)
